Consider 3 molecules from US20190111164A1.

Common to all, as to assay: glycopeptide microarray, antibody at 50 ug/mL
One assay concerns the target T1, IgA-Pep13.
T1 sequence (peptide, Tn (GalNAc, marked *) on S3 and T7): KPSTPPTPSPSC

In a further assay the target is PADRE Tn3b.
The next assay deals with Tn3 linker.
For the next assay, the target named is T2, IgA-Pep11.
T2 sequence (peptide, Tn (GalNAc, marked *) on S3, S5 and T9): KPSPSTPPTPSC

A further assay addresses T3, D-MUC2.
T3 sequence (peptide, N-terminal acetyl; Tn (GalNAc, marked *) on T2 and T3; C-terminal amide): PTTTPLK

The next assay has as its target T4, B-MUC2.
T4 sequence (peptide, N-terminal acetyl; Tn (GalNAc, marked *) on T3; C-terminal amide): PTTTPLK

B1: 2F3 variant #6 (antibody, IgG1, V domains shown)
VH: QVQLLESGGGLVQPGGSLRLSCAASGFTFDSYAMSWVRQAPGKGLEWVSAISGSGASTYYADSVKGRFSISRDNSKNTLYLQMNSLRAEDTAVYYCAIRREYSGYAPFDYWGQGTLVIVSS
VL: DIVMTQTPSSLSASVGDRVTITCRASQGISSWLAWYQQKPEKAPRSLIYAASSLQSGVPSRFSGSGSGTDFTLTISSLQPEDFATYYCQQYISYPYTFGQGTKLEIK
Turning to B1, the RLU is 253 RLU with IgA-Pep13, -84 RLU in the assay with PADRE Tn3b, 21 RLU with Tn3 linker and 311 RLU with IgA-Pep11.

B2: 2F3 parent antibody (antibody, V domains shown)
VH: QITLRESGGGLVQPGGSLRLSCAASGFTFDSYAMSWVRQAPGKGLEWVSAISGSGDSTYYADSVKGRFSISRDNSKNTLYLQMNSLRAEDTAVYYCAIRREYSGYAPFDYWGQGTLVTVSS
VL: DIVMTQTPSSLSASVGDRVTITCRASQGISSWLAWYQQKPEKAPRSLIYAASSLQSGVPSRFSGSGSGTDFTLTISSLQPEDFATYYCQQYISYPYTFGQGTKLEIK
With B2, the RLU with PADRE Tn3b turned out to be 13 RLU; with Tn3 linker, 8 RLU.

B3: 2F3 variant #17v2 (antibody, IgG1, V domains shown)
VH: QITLRESGGGLVQPGGSLRLSCAASGFTFDSYAMSWVRQAPGKGLEWVSAISGSGHSTYYADSVKGRFSISRDNSKNTLYLQMNNLRAEDTAVYYCAIRREYSGYAPFDYWGQGTLVTVSS
VL: DIVMTQTPSSLSASVGDRVTITCRASQGISSWLAWYQQKPEKAPRSLIYAASSLQSGVPSRFSGSGSGTDFTLTISSLQPEDFATYYCQQYISYPYTFGQGTKLEIK
Turning to B3, the RLU with PADRE Tn3b worked out at 49 RLU; in the assay with D-MUC2, 179 RLU; in the assay with Tn3 linker, 24 RLU; with B-MUC2, 237 RLU.
